From PMC10939073, “The major inducible small heat shock protein HSP20-3 in the tardigrade Ramazzottius varieornatus forms filament-like structures and is an active chaperone” (Cell Stress & Chaperones, 2023)

B1: human CRYAB (HSPB5) (natural protein, UniProt P02511 1-175, looked up)
chain: MDIAIHHPWIRRPFFPFHSPSRLFDQFFGEHLLESDLFPTSTSLSPFYLRPPSFLRAPSWFDTGLSEMRLEKDRFSVNLDVKHFSPEELKVKVLGDVIEVHGKHEERQDEHGFISREFHRKYRIPADVDPLTITSSLSSDGVLTVNGPRKQVSGPERTIPITREEKPAVTAAPKK
notes: human alpha-B crystallin CRYAB (HSPB5), recombinant; also called recombinant human CRYAB; source: E. coli, purified (ion exchange and size exclusion chromatography; as described previously)
B2: HSP20-3NCT, C-terminally truncated HSP20-3 (stop codon immediately after G191, repeated QNTN-motif removed) (domain or fragment, Ramazzottius varieornatus, UniProt A0A1D1UZ79 1-191, looked up)
chain: MSMQRYDDYNDYGNRQMRPHRGNYEMEPFFGGNLFGGIDHVMRSMTRDLARMEKHIFGSSDTPNIGSLINHNMAMVPNFIERDGQQLAQFQLDVRGFKPEDITIRTSENVMTVTARHEDKSDDHHAIREFRRMVTIPPGMQMEGMKSRLTPNGVLSIEAPFTPQANRQGDFYEIPIQHGSSSNRNSIQNSG
notes: untagged; same forward primer as HSP20-3; pET23b construct; also called CTD-truncated HSP20–3; source: E. coli BL21 (pLysS), purified (Q-Sepharose ion exchange, Superose 6 size exclusion)
B3: Ramazzottius varieornatus small heat shock protein HSP20-3 (natural protein, UniProt A0A1D1UZ79 1-218, looked up)
chain: MSMQRYDDYNDYGNRQMRPHRGNYEMEPFFGGNLFGGIDHVMRSMTRDLARMEKHIFGSSDTPNIGSLINHNMAMVPNFIERDGQQLAQFQLDVRGFKPEDITIRTSENVMTVTARHEDKSDDHHAIREFRRMVTIPPGMQMEGMKSRLTPNGVLSIEAPFTPQANRQGDFYEIPIQHGSSSNRNSIQNSGQNSSQNTNQNTNQNTNQNTNQNTNQNK
notes: a stop codon precedes the vector's C-terminal hexa-histidine tag, so the protein is untagged; pET23b construct; also called full length HSP20–3; RvY_03967; source: E. coli BL21 (pLysS), purified (Q-Sepharose ion exchange, Superose 6 size exclusion)
B4: Ramazzottius varieornatus small heat shock protein HSP20-6 (natural protein, UniProt A0A1D1VFU2 1-195, looked up)
chain: MSRNLARLLPQITNMLDTPFRRAVTPFNRYRWPASSLGFFDREFERMSNMMDRMHNDLWHSSSLLENPQGSQRGKMNQDLFNIVEENGKKKMRIIFEAERCKPEDIEIKAKGNHLEIKARTEEKGEHFQSIQEYSQYLTLPEGVKAEELTCQFEGGMVTLEAPYTPPAIEAPKDIPVQKEPAEPPVKHNIPIKHE
notes: a stop codon precedes the vector's C-terminal hexa-histidine tag, so the protein is untagged; pET23b construct; also called RvY_08665; source: E. coli BL21 (pLysS), purified (Q-Sepharose ion exchange, Superose 6 size exclusion)

Biological target: the molecule itself
Experiment: SEC; Superose 6 10/300 column; eluted in 0.5 M NaH2PO4, 0.5 M Na2HPO4, 150 mM NaCl, 5 mM EDTA pH 8.0; calibrated with protein standards (670 kDa to 137 Da); self-association, oligomers

Binding result, binds:
B1
B2
B3
B4
